# Data reported in publication PMC5602631, “Crimean-Congo hemorrhagic fever virus nucleocapsid protein has dual RNA binding modes”.
# “And” between values parts separate entries of the source, which are not always exact repeats. Equal values may be shown once.
# Tests used:
# [1] = biological target: CCHFV nucleocapsid protein (N) (Crimean-Congo hemorrhagic fever virus strain 10200) (UniProt P89522); assay: filter binding; conditions: 40 mM Tris-HCl pH 7.4, 80 mM NaCl (or 250 mM), 20 mM KCl, 1 mM DTT, room temperature, 30-45 min
# Sequence of CCHFV nucleocapsid protein (N) (Crimean-Congo hemorrhagic fever virus strain 10200) (P89522 whole entry): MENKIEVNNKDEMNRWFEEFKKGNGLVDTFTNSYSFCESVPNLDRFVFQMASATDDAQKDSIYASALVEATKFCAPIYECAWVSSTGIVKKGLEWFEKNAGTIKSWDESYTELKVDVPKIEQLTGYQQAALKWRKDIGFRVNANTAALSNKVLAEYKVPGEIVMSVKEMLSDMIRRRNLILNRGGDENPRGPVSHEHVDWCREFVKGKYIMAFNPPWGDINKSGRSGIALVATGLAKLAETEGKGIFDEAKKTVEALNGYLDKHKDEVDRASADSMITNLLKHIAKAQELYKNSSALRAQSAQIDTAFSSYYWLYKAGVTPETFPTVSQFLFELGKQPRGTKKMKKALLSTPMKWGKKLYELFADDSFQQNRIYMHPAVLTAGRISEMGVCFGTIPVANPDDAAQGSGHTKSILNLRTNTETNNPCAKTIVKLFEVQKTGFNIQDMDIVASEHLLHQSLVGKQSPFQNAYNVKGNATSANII
# [2] = biological target: CCHFV nucleocapsid protein (N) (Crimean-Congo hemorrhagic fever virus strain 10200) (UniProt P89522); assay: tryptophan fluorescence; conditions: 40 mM Tris-HCl pH 7.4, 80 mM NaCl (or 250 mM), 20 mM KCl, 1 mM DTT, room temperature, 30-45 min
# [3] = biological target: CCHFV nucleocapsid protein (N) (Crimean-Congo hemorrhagic fever virus strain 10200) (UniProt P89522); assay: BLI; conditions: 40 mM Tris-HCl pH 7.4, 80 mM NaCl (or 250 mM), 20 mM KCl, 1 mM DTT, room temperature, 30-45 min
# [4] = biological target: CCHFV nucleocapsid protein (N) (Crimean-Congo hemorrhagic fever virus …, UniProt P89522 1-482); assay: competition; vs labeled 5' NCR; 40 mM Tris-HCl pH 7.4, 80 mM NaCl (or 250 mM), 20 mM KCl, 1 mM DTT, room temperature, 30-45 min; conditions: protein: recombinant; tags: His (C-terminal per Methods; Results says N-terminal); biotin (BLI); none (fluorescence); single strand
# Sequence of CCHFV nucleocapsid protein (N) (P89522 whole entry): as above
molecule,measurement,setting,value
Wild type panhandle,Kd,[1],42 nM and 47 nM
same,Kd,[2],48 nM
same,Kd,[3],41 nM
Nonviral ssRNA (30 nt),Kd,[1],121 nM
5' NCR 60 nt,Kd,[1],131 nM
5' NCR 100 nt,Kd,[1],131 nM
Gluc RNA,Kd,[1],55 nM and 43 nM
CCHF S-segment vRNA,Kd,[1],55 nM
5' NCR (30 nt),Kd,[1],121 nM and 147 nM
same,Kd,[2],167 nM
same,Kd,[3],131 nM
UGGGCGUAAGCGGCACGUGUUUCUUUGAGA (ssRNA) [3' NCR (30 nt)],binding result,[4],binds
